Here are results for 3 molecules from patent publication US20200362018A1 (YEDA RESEARCH AND DEVELOPMENT, published 2020).

For test [1], the target named is T1, T. acidophilum (Archaea) 20S proteasome (T. acidophilum, UniProt P25156 1-233; P28061 9-211).
T1 construct: Assembled in vitro as α7β7β7α7; also called archaeal 20S proteasome; 20S proteasome from T. acidophilum
As to the kind of experiment: native MS with MS/MS of the isolated 20S proteasome peak.
Description: Nanoflow electrospray ionization MS and tandem MS experiments were conducted under non-denaturing conditions on a QToF Q-Star Elite instrument (MDS Sciex, Canada), modified for improved transmission of large non-covalent complexes, or an Q-Exactive Plus Orbitrap EMR (ThermoFisher Scientific). Before MS analysis, 20 μl of up to 100 mM sample was buffer exchanged into 0.5-1 M ammonium acetate pH 7.5, using Bio-Spin columns (Bio-Rad). Sample concentrations were determined by ultraviolet absorbance. Assays were performed in positive ion mode and conditions were optimized to enable the ionization and removal of adducts, without disrupting the non-covalent interactions of the proteins tested. In tandem MS experiments, the relevant m/z values were isolated and argon gas was admitted to the collision cell. […] The following experimental parameters were used on the QToF Q-Star Elite instrument: capillary voltage up to 1.1 kV, declustering potential up to 220 V, focusing potential up to 240 V, a second declustering potential of 15 V, collision energy of between 20 and 200 V and an MCP of 2,350 V. The following experimental conditions were used on the Q-Exactive Plus Orbitrap EMR: capillary voltage 1.7 kV, MS spectra were recorded at low resolution (5000), and the HCD cell voltage was set to 20-50 V, at trapping gas pressure setting of 3.9.

Test [2] deals with T1, T. acidophilum (Archaea) 20S proteasome. As to the kind of experiment: peptide array of overlapping T. acidophilum 20S proteasome peptides.
The target of a further test is α-synuclein (UniProt P37840 1-140). As to the kind of experiment: native mass spectrometry of α-synuclein incubated with the CCR.

T1 sequence (P25156 whole entry, chain 1 of 2): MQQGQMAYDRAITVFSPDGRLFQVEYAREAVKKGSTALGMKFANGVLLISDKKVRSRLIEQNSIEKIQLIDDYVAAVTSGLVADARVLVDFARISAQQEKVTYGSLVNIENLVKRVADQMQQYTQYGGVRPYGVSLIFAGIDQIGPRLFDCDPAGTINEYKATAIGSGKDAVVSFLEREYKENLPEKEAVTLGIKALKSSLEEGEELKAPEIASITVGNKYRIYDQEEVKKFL
T1 sequence (P28061 9-211, chain 2 of 2): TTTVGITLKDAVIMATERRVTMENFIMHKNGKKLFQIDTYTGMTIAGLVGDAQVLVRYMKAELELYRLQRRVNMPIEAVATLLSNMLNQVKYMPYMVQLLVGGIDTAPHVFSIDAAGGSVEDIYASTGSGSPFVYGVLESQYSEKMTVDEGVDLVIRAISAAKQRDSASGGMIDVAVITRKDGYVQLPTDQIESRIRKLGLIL
Description for α-synuclein: Nanoflow electrospray ionization MS and tandem MS experiments were conducted under non-denaturing conditions on a QToF Q-Star Elite instrument (MDS Sciex, Canada), modified for improved transmission of large non-covalent complexes, or an Q-Exactive Plus Orbitrap EMR (ThermoFisher Scientific). Before MS analysis, 20 μl of up to 100 mM sample was buffer exchanged into 0.5-1 M ammonium acetate pH 7.5, using Bio-Spin columns (Bio-Rad). Sample concentrations were determined by ultraviolet absorbance. Assays were performed in positive ion mode and conditions were optimized to enable the ionization and removal of adducts, without disrupting the non-covalent interactions of the proteins tested. In tandem MS experiments, the relevant m/z values were isolated and argon gas was admitted to the collision cell. […] The following experimental parameters were used on the QToF Q-Star Elite instrument: capillary voltage up to 1.1 kV, declustering potential up to 220 V, focusing potential up to 240 V, a second declustering potential of 15 V, collision energy of between 20 and 200 V and an MCP of 2,350 V. The following experimental conditions were used on the Q-Exactive Plus Orbitrap EMR: capillary voltage 1.7 kV, MS spectra were recorded at low resolution (5000), and the HCD cell voltage was set to 20-50 V, at trapping gas pressure setting of 3.9. […]

B1: human DJ-1 (other, UniProt Q99497 1-189, looked up)
chain: MASKRALVILAKGAEEMETVIPVDVMRRAGIKVTVAGLAGKDPVQCSRDVVICPDASLEDAKKEGPYDVVVLPGGNLGAQNLSESAAVKEILKEQENRKGLIAAICAGPTALLAHEIGFGSKVTTHPLAKDKMMNGGHYTYSENRVEKDGLILTSRGPGTSFEFALAIVEALNGKEVAAQVKAPLVLKD
notes: also called PARK7
Regarding B1, the binding result in test [1] is given as “binds”.

B2: human CBR3 (recombinant, His tag removed) (enzyme, UniProt O75828 1-277, looked up)
chain: MSSCSRVALVTGANRGIGLAIARELCRQFSGDVVLTARDVARGQAAVQQLQAEGLSPRFHQLDIDDLQSIRALRDFLRKEYGGLNVLVNNAAVAFKSDDPMPFDIKAEMTLKTNFFATRNMCNELLPIMKPHGRVVNISSLQCLRAFENCSEDLQERFHSETLTEGDLVDLMKKFVEDTKNEVHEREGWPNSPYGVSKLGVTVLSRILARRLDEKRKADRILVNACCPGPVKTDMDGKDSIRTVEEGAETPVYLALLPPDATEPQGQLVHDKVVQNW
As for B2, the binding result in test [2] is given as “binds”; with α-synuclein, “no binding”.

B3: human PGDH with a C-terminal 6His tag (enzyme)
chain: MHVNGKVALVTGAAQGIGRAFAEALLLKGAKVALVDWNLEAGVQCKAALDEQFEPQKTLFIQCDVADQQQLRDTFRKVVDHFGRLDILVNNAGVNNEKNWEKTLQINLVSVISGTYLGLDYMSKQNGGEGGIIINMSSLAGLMPVAQQPVYCASKHGIVGFTRSAALAANLMNSGVRLNAICPGFVNTAILESIEKEENMGQYIEYKDHIKDMIKYYGILDPPLIANGLITLIEDDALNGAIMKITTSKGIHFQDYDTTPFQAKTQ
notes: also called PGDH-His; not shown: C-terminal 6His tag
With B3, the binding result with α-synuclein was “no binding”.
